Measurements as given in article PMC3787022, “Small Angle X-Ray Scattering Studies of Mitochondrial Glutaminase C Reveal Extended Flexible Regions, and Link Oligomeric State with Enzyme Activity” (PLoS ONE, 2013).

Legend:
D3Z7P3 = test: SAXS; phosphate (Pi) titration 0-100 mM, microfluidic mixing chip, 36 sec mixing time; GACwt constant at 30.7 uM, GACΔC constant at 33.8 uM; 20 mM Tris-HCl, 500 mM NaCl, 0.5 mM TCEP, 1 mM sodium azide; analysed with OLIGOMER; settings: other: SAXS
[1] = biological target: the molecule itself; test: SEC-MALS; protein concentration screen 1.4-9.7 uM, no K2HPO4; WTC-030S5 column, 20 mM Tris-HCl pH 8.5, 500 mM NaCl, 23°C
[2] = biological target: the molecule itself; test: SEC-MALS; phosphate screen, K2HPO4 0, 25, 50 and 100 mM; protein 5 uM in the peak (injected 70 uM); WTC-030S5 column, 20 mM Tris-HCl pH 8.5, 500 mM NaCl, 23°C

B1: Glutaminase C wildtype construct (mouse GAC, residues 73-603) (enzyme, UniProt D3Z7P3-2 73-603, looked up)
chain: SSSPSEILQELGKGGTPPQQQQQQQQQPGASPPAAPGPKDSPGETDAFGNSEGKEMVAAGDNKIKQGLLPSLEDLLFYTIAEGQEKIPVHKFITALKSTGLRTSDPRLKECMDMLRLTLQTTSDGVMLDKDLFKKCVQSNIVLLTQAFRRKFVIPDFMSFTSHIDELYESAKKQSGGKVADYIPQLAKFSPDLWGVSVCTVDGQRHSIGDTKVPFCLQSCVKPLKYAIAVNDLGTEYVHRYVGKEPSGLRFNKLFLNEDDKPHNPMVNAGAIVVTSLIKQGVNNAEKFDYVMQFLNKMAGNEYVGFSNATFQSERESGDRNFAIGYYLKEKKCFPEGTDMVGILDFYFQLCSIEVTCESASVMAATLANGGFCPITGERVLSPEAVRNTLSLMHSCGMYDFSGQFAFHVGLPAKSGVAGGILLVVPNVMGMMCWSPPLDKMGNSVKGIHFCHDLVSLCNFHNYDNLRHFAKKLDPRREGGDQRHSFGPLDYESLQQELALKDTVWKKVSPESSDDTSTTVVYRMESLGERS
notes: GAC isoform of 603 residues; also called GACwt; GAC wildtype; source: expressed from a pET28a vector, purified (Ni-column, anion-exchange, gel filtration); not shown: histidine tag, N-terminal, cleaved
- volume fraction of octamers at 80 mM Pi (D3Z7P3): a maximum of 38% at 80 mM Pi
- stoichiometry N [1]: 4
- stoichiometry N [2]: ~4
